Measured values taken from IntAct's records for PubMed 22357847.

How the values were obtained:
[1] = biological target: rae1l_rat Rae1 (UniProt Q3SWS8)
[2] = biological target: rae1l_rat Rae1 (UniProt Q3SWS8); remark: listed apart in the source
[3] = biological target: rae1_caeel rae-1 (UniProt Q93454)
Sequence of UniProt Q93454 (Q93454 whole entry): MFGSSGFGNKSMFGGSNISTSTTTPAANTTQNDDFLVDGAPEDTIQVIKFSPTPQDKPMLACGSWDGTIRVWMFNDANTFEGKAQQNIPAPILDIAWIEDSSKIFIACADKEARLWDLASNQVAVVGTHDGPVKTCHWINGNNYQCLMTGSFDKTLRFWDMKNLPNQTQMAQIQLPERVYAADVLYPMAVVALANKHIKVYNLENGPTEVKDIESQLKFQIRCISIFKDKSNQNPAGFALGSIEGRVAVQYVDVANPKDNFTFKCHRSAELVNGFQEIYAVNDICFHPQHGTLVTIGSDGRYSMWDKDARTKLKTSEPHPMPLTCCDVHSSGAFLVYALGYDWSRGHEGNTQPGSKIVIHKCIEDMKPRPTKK

Sequence of UniProt Q3SWS8 (Q3SWS8 whole entry): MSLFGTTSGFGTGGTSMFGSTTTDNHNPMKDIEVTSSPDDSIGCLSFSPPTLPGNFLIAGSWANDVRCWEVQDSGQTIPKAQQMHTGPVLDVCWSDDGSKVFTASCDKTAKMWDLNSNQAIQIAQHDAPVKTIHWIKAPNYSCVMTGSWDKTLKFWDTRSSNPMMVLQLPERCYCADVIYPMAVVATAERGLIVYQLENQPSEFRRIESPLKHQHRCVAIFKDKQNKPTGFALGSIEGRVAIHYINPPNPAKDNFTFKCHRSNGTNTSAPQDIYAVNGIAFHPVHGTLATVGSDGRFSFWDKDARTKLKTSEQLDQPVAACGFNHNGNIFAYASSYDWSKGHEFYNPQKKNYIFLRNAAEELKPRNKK

Substance: E3 ubiquitin-protein ligase rpm-1 (Caenorhabditis elegans), Q17551 R2088A
- effect of a mutation on the interaction [1]: disrupting interaction strength

Substance: E3 ubiquitin-protein ligase rpm-1 (Caenorhabditis elegans), Q17551 V2084A;I2087A;R2088A
- effect of a mutation on the interaction [1]: decreasing interaction strength
- effect of a mutation on the interaction [2]: disrupting interaction strength
- effect of a mutation on the interaction [3]: disrupting interaction strength
